Experimental data taken from article doi:10.1101/2025.10.29.685377.
Where two headings read alike, the source gives them in different places.

Experiments:
[1] = target: Alka channel (Drosophila melanogaster alkaline taste receptor Alka) (Drosophila melanogaster); test: cryo-EM structure
[2] = target: Alka channel (Drosophila melanogaster alkaline taste receptor Alka) (Drosophila melanogaster); test: cryo-EM structure; remark: listed apart in the source

“Alka channel (Drosophila melanogaster alkaline taste receptor Alka)” showed a stoichiometry N [1] of 5 and a stoichiometry N [2] of 5.
